IntAct's records for PubMed 20360680
Changes are numbered by the printed parent chain.

B1: Protein bicaudal D homolog 2 (Mus musculus), Q921C5 (parent)
chain: MSAPSEEEEYARLVMEAQPEWLRAEVKRLSHELAETTREKIQAAEYGLAVLEEKHQLKLQFEELEVDYEAIRSEMEQLKEAFGQAHTNHKKVAADGESREESLIQESASKEQYYVRKVLELQTELKQLRNVLTNTQSENERLTSVAQELKEINQNVEIQRGRLRDDIKEYKFREARLLQDYSELEEENISLQKQVSVLRQNQVEFEGLKHEIKRLEEETEYLNSQLEDAIRLKEISERQLEEALETLKTEREQKNNLRKELSHYMSINDSFYTSHLQVSLDGLKFSDDTVTAEPNNDAEALVNGFEHSGLVKSSLDNKTSTPRKDGLAPPSPSLVSDLLSELHISEIQKLKQQLVQMEREKVGLLATLQDTQKQLEQARGTLSEQHEKVNRLTENLSALRRLQAGKERQTSLDNEKDRDSHEDGDYYEVDINGPEILACKYHVAVAEAGELREQLKALRSTHEAREAQHAEEKGRYEAEGQALTEKISLLEKASHQDRELLAHLEKELKKVSDVAGETQGSLNVAQDELVTFSEELANLYHHVCMCNNETPNRVMLDYYREGQGKAGRTSPEGRGRRSPVLLPKGLLATEVGRADGGTGDNSPSPSSSLPSPLSDPRREPMNIYNLIAIIRDQIKHLQAAVDRTTELSRQRIASQELGPAVDKDKEALMEEILKLKSLLSTKREQITTLRTVLKANKQTAEVALANLKSKYENEKAMVTETMMKLRNELKALKEDAATFSSLRAMFATRCDEYITQLDEMQRQLAAAEDEKKTLNSLLRMAIQQKLALTQRLELLELDHEQTRRGRSKAASKAKPASPSL
B2: Ras-related protein Rab-6A (Mus musculus), P35279 (parent)
chain: MSAGGDFGNPLRKFKLVFLGEQSVGKTSLITRFMYDSFDNTYQATIGIDFLSKTMYLEDRTVRLQLWDTAGQERFRSLIPSYIRDSTVAVVVYDITNVNSFQQTTKWIDDVRTERGSDVIIMLVGNKTDLADKRQVSIEEGERKAKELNVMFIETSAKAGYNVKQLFRRVAAALPGMESTQDRSREDMIDIKLEKPQEQPVNEGGCSC
B3: Ras-related protein Rab-6A (Mus musculus), P35279 (parent)
chain: B2 chain
partner: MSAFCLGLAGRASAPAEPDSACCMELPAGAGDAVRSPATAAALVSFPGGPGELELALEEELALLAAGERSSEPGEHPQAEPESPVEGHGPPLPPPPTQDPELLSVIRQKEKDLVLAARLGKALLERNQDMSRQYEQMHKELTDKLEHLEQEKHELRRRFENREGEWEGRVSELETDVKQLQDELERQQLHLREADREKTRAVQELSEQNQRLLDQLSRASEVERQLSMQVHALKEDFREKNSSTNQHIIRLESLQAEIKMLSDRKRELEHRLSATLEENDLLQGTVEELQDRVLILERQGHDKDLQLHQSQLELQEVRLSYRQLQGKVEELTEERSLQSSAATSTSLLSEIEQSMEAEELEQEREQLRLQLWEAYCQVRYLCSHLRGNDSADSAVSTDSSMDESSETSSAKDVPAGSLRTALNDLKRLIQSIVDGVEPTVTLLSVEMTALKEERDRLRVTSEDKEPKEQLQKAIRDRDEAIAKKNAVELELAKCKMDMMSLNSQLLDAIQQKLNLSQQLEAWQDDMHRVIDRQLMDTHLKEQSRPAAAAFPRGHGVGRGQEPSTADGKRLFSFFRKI
B4: BICD family-like cargo adapter 1 (Mus musculus), A0JNT9 (parent)
chain: B3 partner
B5: Ras-related protein Rab-6A (Homo sapiens), P20340 (parent)
chain: B2 chain with A3T, N202S
partner: B3 partner

Variants of: B1
Details: with rab6a_mouse Rab6a

| effect of a mutation on the interaction | Variant |
| --- | --- |
| disrupting interaction | K785M |

Variants of: B2
Details: with bicd2_mouse Bicd2, Q921C5

| effect of a mutation on the interaction | Variant |
| --- | --- |
| disrupting interaction | T27N |

Variants of: B3
Details: with bicl1_mouse Bicdl1, A0JNT9

| effect of a mutation on the interaction | Variant |
| --- | --- |
| increasing interaction | Q72R |

Variants of: B4
Details: with rab6a_mouse Rab6a

| effect of a mutation on the interaction | Variant |
| --- | --- |
| disrupting interaction | K512M |

Variants of: B4
Details: with rab6b_mouse Rab6b

| effect of a mutation on the interaction | Variant |
| --- | --- |
| disrupting interaction | K512M |

Variants of: B5
Details: with bicl1_mouse Bicdl1, A0JNT9

| effect of a mutation on the interaction | Variant |
| --- | --- |
| disrupting interaction | T27N |
